Patent US20150368625A1 (MIT, published 2015)

What follows are binders tested against T1, Core fragment with 601 split + SZ17 (Bacteriophage T7, UniProt P00573 1-601) (assay: reporter assay in cells: core at a constant level, sigma-like fragment induced, promoter->sfgfp read by flow cytometry).
T1 construct: Expressed constitutively in cells from a single copy plasmid, not purified; also called conserved fragment; 1-601 fragment
Protocol: Cells containing the three test plasmids (constitutive expression of core, promoter->sfgfp reporter, and pTac->sigma-like fragment) were inoculated into 0.5 mL LB+antibiotics and grown to saturation overnight. The overnight cultures were diluted 1:200 into 0.15 mL LB+antibiotics+100 μM IPTG and grown at 37° C., 1000 rpm for 6 hours. The fluorescence of the cells was quantified using a flow cytometer (FIG. 8). The assay was performed on three separate days, with three technical replicates per day. Data shown is the average value over all three days, with error bars representing the standard deviation between the mean values on each day.

T1 sequence (P00573 1-601, tags or fused parts left off): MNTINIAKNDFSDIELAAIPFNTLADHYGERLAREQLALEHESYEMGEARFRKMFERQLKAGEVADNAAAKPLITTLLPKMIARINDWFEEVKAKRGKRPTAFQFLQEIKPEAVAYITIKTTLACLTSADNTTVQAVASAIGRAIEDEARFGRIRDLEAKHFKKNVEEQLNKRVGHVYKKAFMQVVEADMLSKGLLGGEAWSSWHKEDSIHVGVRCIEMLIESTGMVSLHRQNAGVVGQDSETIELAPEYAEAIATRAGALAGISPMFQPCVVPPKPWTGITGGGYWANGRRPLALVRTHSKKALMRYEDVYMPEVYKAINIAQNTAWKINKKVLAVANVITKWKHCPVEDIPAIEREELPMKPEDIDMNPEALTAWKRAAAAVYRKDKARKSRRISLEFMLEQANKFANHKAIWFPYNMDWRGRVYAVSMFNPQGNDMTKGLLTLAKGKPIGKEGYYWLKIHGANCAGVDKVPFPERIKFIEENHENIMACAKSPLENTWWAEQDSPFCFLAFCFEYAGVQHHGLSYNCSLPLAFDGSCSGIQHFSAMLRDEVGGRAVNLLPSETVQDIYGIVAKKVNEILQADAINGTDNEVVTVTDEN

Binder	binding result
T7 sigma-like fragment with 601 split + SZ18 (other, also called T7 fragment; variable fragment) MSIAATLENDLARLENENARLEKDIANLERDLAKLEREEAYFGGSGGKNTGEISEKVKLGTKALAGQWLAYGVTRSVTKSSVMTLAYGSKEFGFRQQVLEDTIQPAIDSGKGLMFTQPNQAAGYMAKLIWESVSVTVVAAVEAMNWLKSAAKLLAAEVKDKKTGEILRKRCAVHWVTPDGFPVWQEYKKPIQTRLNLMFLGQFRLQPTINTNKDSEIDAHKQESGIAPNFVHSQDGSHLRKTVVWAHEKYGIESFALIHDSFGTIPADAANLFKAVRETMVDTYESCDVLADFYDQFADQLHESQLDKMPALPAKGNLNLRDILESDFAFA	binds
T3 sigma-like fragment with 601 split + SZ18 (other, also called T3 fragment; T3 sigma factor) MSIAATLENDLARLENENARLEKDIANLERDLAKLEREEAYFGGSGGKNTGEISEKVKLGTKALAGQWLAYGVTRSVTKRSVMTLAYGSKEFGFRQQVLEDTIQPAIDSGKGLMFTQPNQAAGYMAKLIWESVSVTVVAAVEAMNWLKSAAKLLAAEVKDKKTGEILRKRCAVHWVTPDGFPVWQEYKKPIQKRLDMIFLGQFRLQPTINTNKDSEIDAHKQESGIAPNFVHSQDGSHLRKTVVWAHEKYGIESFALIHDSFGTIPADAANLFKAVRETMVDTYESCDVLADFYDQFADQLHESQLDKMPALPAKGNLNLRDILESDFAFA	binds
K1FR sigma-like fragment with 601 split + SZ18 (other) MSIAATLENDLARLENENARLEKDIANLERDLAKLEREEAYFGGSGGKNTGEISEKVKLGTKALAGQWLAYGVTRSVTKRSVMTLAYGSKEFGFRQQVLEDTIQPAIDSGKGLMFTQPNQAAGYMAKLIWESVSVTVVAAVEAMNWLKSAAKLLAAEVKDKKTGEILRKRCAVHWVTPDGFPVWQEYKKPIQTRLNLRFLGSFNLQPTVNTNKDSEIDAHKQESGIAPNFVHSQDGSHLRKTVVWAHEKYGIESFALIHDSFGTIPADAANLFKAVRETMVDTYESCDVLADFYDQFADQLHESQLDKMPALPAKGNLNLRDILESDFAFA	binds
